This note sets out measurements from patent publication US7067273B2, “Peptide substrates of a proteolytic ADAM33 polypeptide and assays using the same” (Schering Corporation, priority 2002, dated 2006).

The target in assay [1] is T1, proteolytic ADAM33 polypeptide (Homo sapiens, UniProt Q9BZ11).
T1 construct: The presence of imidazole facilitated the separation of the prodomain from the catalytic domain; made in house; host or cells: Drosophila melanogaster S2 cells (pMT/Bip/V5-His-C, secreted)
T1 sequence (Q9BZ11 204-409): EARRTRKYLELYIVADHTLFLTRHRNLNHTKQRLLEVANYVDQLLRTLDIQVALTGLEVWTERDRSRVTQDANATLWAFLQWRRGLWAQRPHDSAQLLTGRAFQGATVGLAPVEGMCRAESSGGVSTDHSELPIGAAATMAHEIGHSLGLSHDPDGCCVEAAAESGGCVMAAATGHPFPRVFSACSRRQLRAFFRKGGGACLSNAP
As to the kind of experiment: Proteolytic activity assay: cleavage of peptide substrates by a proteolytic ADAM33 polypeptide (HPLC). In kind it is biochemical. To be noted: fold versus SEQ ID NO: 8. The text has this:
The proteolytic activity assay consists of a substrate, preferably at a micromolar to submicromolar concentration, and a proteolytic ADAM33 polypeptide, preferably at a submicromolar concentration, in a benign buffered solution at pH 7–9, more preferably around pH 7.5–8.0. This assay may be set-up to monitor proteolytic activity of a proteolytic ADAM33 polypeptide continuously over a time span of minutes to hours in a 96-well or 384-well format. Alternatively, this assay may be set up to allow an elapse of time span of minutes to hours before the proteolytic activity is quenched and analyzed following acidification to under pH 4 or addition of an excess amount of zinc chelators (e.g., EDTA).
For example, an ADAM33 substrate derived from amyloid percursor protein to assay the proteolytic activity of a proteolytic ADAM33 polypeptide. The cleavage site in the above-mentioned substrate is indicated by a hyphen (i.e., the cleavage site is the scissile bond being between the second histidine and the adjacent glutamine). One particular set of assay conditions contains 25 nM of the proteolytic ADAM33 polypeptide and 25 μM substrate. […] The rate of reaction is measured over a defined time period (e.g., for 1 hour at room temperature) and then stopped. Product formation can be quantified at 214 nm by HPLC using a reverse phase column to separate the substrate from the products. […]

The target of assay [2] is T1, proteolytic ADAM33 polypeptide. As to the kind of experiment: FRET assay for inhibition of the proteolytic activity of a proteolytic ADAM33 polypeptide. It counts as biochemical. The method, then: A FRET assay may also be used to determine the cleavage of a compound by a proteolytic ADAM33 polypeptide. At room temperature, in a total reaction volume of 100 μL per well in a 96 well plate, add 50 μL of 2× Assay Buffer (40 mM HEPES, pH 7.5, 1.0 M NaCl; 1× Assay Buffer being 20 mM HEPES, pH 7.5, 0.5 M NaCl), followed by 25 μL of 100 μM substrate, e.g., SEQ ID NO: 14 (K(Dabcyl)YEVAHQKLAE(Edans)K-OH), and lastly 25 μL of 40 nM a proteolytic ADAM33 polypeptide in Enzyme Dilution Buffer 40 mM HEPES, pH 7.5. The reaction starts after the enzyme is added and is assayed at room temperature for 15–20 minutes by reading the relative fluorescence unit.
For High throughput screening, the FRET assay is performed similarly to that stated above, but with Assay Buffer that is also composed of 0.2 mg/ml BSA (1× Assay Buffer being 20 mM HEPES, pH 7.5, 0.5 M NaCl, 0.2 mg/ml BSA). In addition, the substrate used has a fluorescent donor and an acceptor at either end of the peptide, e.g., SEQ ID NO: 18 ((Cy5Q)WEVAH*QKLAC(Cy3B)K). Lastly, the reaction is incubated at room temperature for 3 hours and then stopped by adding 10 μL EDTA (11 mM). To measure the proteolytic activity of the proteolytic ADAM33 polypeptide on the substrate, the endpoint (relative fluorescence unit) is read using the appropriate excitation and emission wavelengths (e.g., for Cy5Q and Cy3B, 540 nm and 580 nm, respectively). […]

As to “Ac-Tyr-Glu-Val-Ala-His-Gln-Lys-Leu-Val-Phe-NH2 (Ac-YEVAHQKLVF-NH2) [SEQ ID NO: 13, peptide substrate, code P5P5′, Ac-YEVAH*QKLVF-NH2]”, the “cleavage rate relative to the 10-mer truncated form of APP28 (SEQ ID NO: 8)” value in assay [1] is reported as “seventeen times greater”.
As for `CNC(=O)[C@@H](NC(=O)[C@H](CC(C)C)[C@H](O)C(=O)NO)C(C)(C)C` [marimastat], the “inhibition of the proteolytic activity of a proteolytic ADAM33 polypeptide (in words)” value in assay [2] is recorded as “identified as an inhibitor”.
